The values that follow come from patent US20220204626A1 (REMEGEN, published 2022).

Broadly, the EC50 is the concentration giving half of the maximal effect.

The target of one assay is VEGF (UniProt P15692-4 27-191, limits assumed). Kind of assay: ELISA, VEGF coated at 1 µg/ml, detection with anti-His-HRP. The source says:
(§1) (11) Reading: The absorbance values were read at 450/655 nm respectively using the MD microplate reader. The concentration of the sample to be tested was used as the abscissa and the absorbance value as the ordinate to plot making a 4-PL curve, and the software automatically gave the EC50 value. (see table 7).
(In general: An ELISA detects its analyte on a solid surface through an enzyme-linked reagent.)

For a further assay, the target named is T1, CTLA-4 Protein (UniProt P16410 36-161, limits assumed).
T1 sequence (looked up): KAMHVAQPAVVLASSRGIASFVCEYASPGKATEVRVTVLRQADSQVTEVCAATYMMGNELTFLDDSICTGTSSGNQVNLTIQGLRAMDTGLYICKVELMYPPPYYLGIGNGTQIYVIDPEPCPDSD
Kind of assay: ELISA, CTLA-4 Protein coated at 20 µg/ml, biotinylated sample, detection with streptavidin-HRP. The method, then:
Hib-PDC sample well and CD80-His well: Streptavidin-HRP was diluted at 1:2000, and added at 100 μl/well. Then the plate was incubated at 37° C. for 1 h±10 min;
as §1

The target of assay [1] is T2, TGF-β1 (UniProt P01137 279-390, limits assumed). Put plainly: ELISA on coated TGF-β1, ratio of EC50 values against TGF-β-R-His.
T2 sequence (P01137 279-390 limits assumed): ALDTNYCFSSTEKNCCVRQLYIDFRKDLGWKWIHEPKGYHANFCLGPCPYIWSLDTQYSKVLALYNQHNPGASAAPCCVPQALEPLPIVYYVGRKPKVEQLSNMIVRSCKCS
Text: as §1

Assay [2] addresses T2, TGF-β1. Kind of assay: ELISA, TGF-β1 coated at 2 µg/ml, detection with goat anti-human Fc-HRP.
Text: as §1

The target of assay [3] is T2, TGF-β1. Kind of assay: ELISA, TGF-β1 coated at 2 µg/ml, detection with anti-His-HRP.
Text: as §1

Sequence of VEGF (P15692 other isoform, or with tags, fused parts or gaps limits assumed): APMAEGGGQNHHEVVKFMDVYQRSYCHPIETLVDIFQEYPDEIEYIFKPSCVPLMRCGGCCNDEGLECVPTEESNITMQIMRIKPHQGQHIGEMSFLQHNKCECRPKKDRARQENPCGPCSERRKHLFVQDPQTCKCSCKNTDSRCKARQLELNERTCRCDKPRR

B1: VEGF-R-His (receptor)
chain: GRPFVEMYSEIPEIIHMTEGRELVIPCRVTSPNITVTLKKFPLDTLIPDGKRIIWDSRKGFIISNATYKEIGLLTCEATVNGHLYKTNYLTHRQTNTIIDVVLSPSHGIELSVGEKLVLNCTARTELNVGIDFNWEYPSSKHQHKKLVNRDLKTQSGSEMKKFLSTLTIDGVTRSDQGLYTCAASSGLMTKKNSTFVRVHEP
notes: The His tag is set after the fragment only by default; also called VEGF receptor monomer; not shown: His tag
On to B1, for which the EC50 with VEGF turned out to be 2150 nM.

B2: CD80-His (ligand)
chain: VIHVTKEVKEVATLSCGHNVSVEELAQTRIYWQKEKKMVLTMMSGDMNIWPEYKNRTIFDITNNLSIVILALRPSDEGTYECVVLKYEKDAFKREHLAEVTLSVKADFPTPSISDFEIPTSNIRRIICSTSGGFPEPHLSWLENGEELNAINTTVSQDPETELYAVSSKLDFNMTTNHSFMCLIKYGHLRVNQTFNWN
modifications: biotinylated sample in the assay (sites not given)
notes: The His tag is set after the fragment only by default; also called CD80 monomer; His-tagged CD80 fragment; not shown: His tag
Take B2: the EC50 in the assay with CTLA-4 Protein came out at 50.7 nM.

B3: Hib-PLT (bispecific antibody)
heavy: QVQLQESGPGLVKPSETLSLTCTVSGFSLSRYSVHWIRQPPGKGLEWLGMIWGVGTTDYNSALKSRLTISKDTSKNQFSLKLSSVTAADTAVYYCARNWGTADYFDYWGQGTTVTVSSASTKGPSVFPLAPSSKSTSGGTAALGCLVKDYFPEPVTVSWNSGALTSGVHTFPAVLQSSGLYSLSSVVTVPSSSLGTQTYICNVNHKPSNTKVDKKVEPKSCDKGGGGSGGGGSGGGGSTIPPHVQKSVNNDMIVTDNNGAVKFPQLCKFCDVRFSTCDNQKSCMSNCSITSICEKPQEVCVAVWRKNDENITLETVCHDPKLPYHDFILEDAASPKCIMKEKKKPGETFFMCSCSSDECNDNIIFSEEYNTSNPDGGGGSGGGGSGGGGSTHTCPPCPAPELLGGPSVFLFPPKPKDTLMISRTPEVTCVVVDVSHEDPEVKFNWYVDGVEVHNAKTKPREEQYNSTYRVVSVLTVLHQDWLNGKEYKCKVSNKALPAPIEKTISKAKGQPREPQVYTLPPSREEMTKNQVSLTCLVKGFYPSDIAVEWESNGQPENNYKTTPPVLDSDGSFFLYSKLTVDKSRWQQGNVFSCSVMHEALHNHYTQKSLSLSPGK
light: DIVLTQSPASLAVSPGQRATITCRASKSVHTSGYSYMHWYQQKPGQPPKLLIYLASNLESGVPARFSGSGSGTDFTLTINPVEANDTANYYCQHSGELPYTFGGGTKVEIKRTVAAPSVFIFPPSDEQLKSGTASVVCLLNNFYPREAKVQWKVDNALQSGNSQESVTEQDSKDSTYSLSSTLTLSKADYEKHKVYACEVTHQGLSSPVTKSFNRGEC
notes: also called fusion protein Hib-PLT; Hibody bispecific fusion protein Hib-PLT
In the case of B3, the “fold better binding activity than TGF-β receptor monomer” value with TGF-β1 [1] was approximately 70 times. The molecule also had an EC50 with TGF-β1 [2] of 0.164 nM.

B4: TGF-β-R-His (receptor)
chain: TIPPHVQKSVNNDMIVTDNNGAVKFPQLCKFCDVRFSTCDNQKSCMSNCSITSICEKPQEVCVAVWRKNDENITLETVCHDPKLPYHDFILEDAASPKCIMKEKKKPGETFFMCSCSSDECNDNIIFSEEYNTSNPD
notes: The His tag is set after the fragment only by default; also called TGF-β receptor monomer; His-tagged TGF-βRII extracellular region fragment; not shown: His tag
As for B4, the EC50 with TGF-β1 [3] is 11.6 nM.
